The labels stand for the following.
B1: Hammerhead Ribozyme (parent)
chain: ACCGGAUGUGCUUUCCGGUCUGAUGAGUCCGUGAGGACGAAACAG

The variants in this data set derive from B1. Kind of data set: self-cleavage, relative activity (ratio to wild type); higher = more cleavage; co-transcriptional.
Take ACCGGAUGUGCUUUCCGGGCUGAUUAGUCCGUGAGGACGAAACAG [U19G G25U]: the self-cleavage is 0.37.

For the variant ACCGGAUGUGCUUUCCGGGCUGAUCAGUCCGUGAGGACGAAACAG [U19G G25C], the self-cleavage turned out to be 0.359. With ACCGGAUGUGCUUUCCGGGCUGAUAAGUCCGUGAGGACGAAACAG [U19G G25A] the figure was 0.275; with ACCGGAUGUGCUUUCCGGGCUGAUGAGUCCGUGAGAACGAAACAG [U19G G36A], 0.38; with ACCGGAUGUGCUUUCCGGGCUGAUGAGUCCGUGAGUACGAAACAG [U19G G36U], 0.301. With ACCGGAUGUGCUUUCCGGGCUGAUGAGUCCGUGAGCACGAAACAG [U19G G36C] the figure was 0.351; with ACCGGAUGUGCUUUCCGGCCUGAUGAGUCCGUGAAGACGAAACAG [U19C G35A], 0.64. Turning to ACCGGAUGUGCUUUCCGGCCUGAUGAGUCCGUGACGACGAAACAG [U19C G35C], the self-cleavage worked out at 0.492. With ACCGGAUGUGCUUUCCGGCCUGAUGAGUCCGUGAUGACGAAACAG [U19C G35U] the figure was 0.465; with ACCGGAUGUGCUUUCCGGCCUGAUGAGUCCGUAAGGACGAAACAG [U19C G33A], 0.579; with ACCGGAUGUGCUUUCCGGCCUGAUGAGUCCGUCAGGACGAAACAG [U19C G33C], 0.38.

Regarding ACCGGAUGUGCUUUCCGGCCUGAUGAGUCCGUUAGGACGAAACAG [U19C G33U], the self-cleavage is 0.792. As to ACCGGAUGUGCUUUCCGGGCUGAUGAGUCCGUGAGGACGAAUCAG [U19G A42U], the self-cleavage was 0.345.

For the variant ACCGGAUGUGCUUUCCGGGCUGAUGAGUCCGUGAGGACGAACCAG [U19G A42C], the self-cleavage was 0.424. As for ACCGGAUGUGCUUUCCGGGCUGAUGAGUCCGUGAGGACGAAGCAG [U19G A42G], the self-cleavage amounted to 0.317. With ACCGGAUGUGCUUUCCGGCCUGAUGAGUCCGAGAGGACGAAACAG [U19C U32A], the self-cleavage is 0.551.

Take ACCGGAUGUGCUUUCCGGCCUGAUGAGUCCGCGAGGACGAAACAG [U19C U32C]: the self-cleavage turned out to be 0.565. As to ACCGGAUGUGCUUUCCGGCCUGAUGAGUCCGGGAGGACGAAACAG [U19C U32G], the self-cleavage came to 0.642. Regarding ACCGGAUGUGCUUUCCGGGCUGAUGAGUCCGUGAGGAAGAAACAG [U19G C38A], the self-cleavage amounted to 0.324. With ACCGGAUGUGCUUUCCGGGCUGAUGAGUCCGUGAGGAGGAAACAG [U19G C38G], the self-cleavage was 0.354.

As to ACCGGAUGUGCUUUCCGGGCUGAUGAGUCCGUGAGGAUGAAACAG [U19G C38U], the self-cleavage stood at 0.364. With ACCGGAUGUGCUUUCCGGGGUGAUGAGUCCGUGAGGACGAAACAG [U19G C20G] the figure was 0.307. In the case of ACCGGAUGUGCUUUCCGGGUUGAUGAGUCCGUGAGGACGAAACAG [U19G C20U], the self-cleavage is 0.306. For ACCGGAUGUGCUUUCCGGGAUGAUGAGUCCGUGAGGACGAAACAG [U19G C20A] the value was 0.316.

In the case of ACCGGAUGUGCUUUCCGGGCUGAUGAGUCCGUGAGGACCAAACAG [U19G G39C], the self-cleavage was 0.297. With ACCGGAUGUGCUUUCCGGGCUGAUGAGUCCGUGAGGACUAAACAG [U19G G39U] the figure was 0.305; with ACCGGAUGUGCUUUCCGGGCUGAUGAGUCCGUGAGGACAAAACAG [U19G G39A], 0.378; with ACCGGAUGUGCUUUCCGGGCGGAUGAGUCCGUGAGGACGAAACAG [U19G U21G], 0.328. In the case of ACCGGAUGUGCUUUCCGGGCCGAUGAGUCCGUGAGGACGAAACAG [U19G U21C], the self-cleavage worked out at 0.471. On to ACCGGAUGUGCUUUCCGGGCAGAUGAGUCCGUGAGGACGAAACAG [U19G U21A], for which the self-cleavage is 0.323.

Take ACCGGAUGUGCUUUCCGGUAUGGUGAGUCCGUGAGGACGAAACAG [C20A A23G]: the self-cleavage was found to be 0.27. For ACCGGAUGUGCUUUCCGGUAUGUUGAGUCCGUGAGGACGAAACAG [C20A A23U] the value was 0.36; for ACCGGAUGUGCUUUCCGGUAUGCUGAGUCCGUGAGGACGAAACAG [C20A A23C], 0.353. For ACCGGAUGUGCUUUCCGGCCUGAUGAGUCCGUGAGGACAAAACAG [U19C G39A] the value was 0.282; for ACCGGAUGUGCUUUCCGGCCUGAUGAGUCCGUGAGGACCAAACAG [U19C G39C], 0.251; for ACCGGAUGUGCUUUCCGGCCUGAUGAGUCCGUGAGGACUAAACAG [U19C G39U], 0.271. With ACCGGAUGUGCUUUCCGGGCUGAUGAGUCUGUGAGGACGAAACAG [U19G C30U] the figure was 0.399; with ACCGGAUGUGCUUUCCGGGCUGAUGAGUCAGUGAGGACGAAACAG [U19G C30A], 0.376; with ACCGGAUGUGCUUUCCGGGCUGAUGAGUCGGUGAGGACGAAACAG [U19G C30G], 0.41. In the case of ACCGGAUGUGCUUUCCGGGCUCAUGAGUCCGUGAGGACGAAACAG [U19G G22C], the self-cleavage turned out to be 0.308. For ACCGGAUGUGCUUUCCGGGCUAAUGAGUCCGUGAGGACGAAACAG [U19G G22A] the value was 0.394; for ACCGGAUGUGCUUUCCGGGCUUAUGAGUCCGUGAGGACGAAACAG [U19G G22U], 0.304. For ACCGGAUGUGCUUUCCGGGCUGACGAGUCCGUGAGGACGAAACAG [U19G U24C] the value was 0.255. For ACCGGAUGUGCUUUCCGGGCUGAGGAGUCCGUGAGGACGAAACAG [U19G U24G] the value was 0.323. As for ACCGGAUGUGCUUUCCGGGCUGAAGAGUCCGUGAGGACGAAACAG [U19G U24A], the self-cleavage was determined as 0.472. With ACCGGAUGUGCUUUCCGGUAUGAUGUGUCCGUGAGGACGAAACAG [C20A A26U] the figure was 0.342; with ACCGGAUGUGCUUUCCGGUAUGAUGCGUCCGUGAGGACGAAACAG [C20A A26C], 0.397; with ACCGGAUGUGCUUUCCGGUAUGAUGGGUCCGUGAGGACGAAACAG [C20A A26G], 0.344. With ACCGGAUGUGCUUUCCGGGCUGAUGAGUCCGUGAGGACGAAAAAG [U19G C43A] the figure was 0.319.

As for ACCGGAUGUGCUUUCCGGGCUGAUGAGUCCGUGAGGACGAAAUAG [U19G C43U], the self-cleavage turned out to be 0.336. For ACCGGAUGUGCUUUCCGGGCUGAUGAGUCCGUGAGGACGAAAGAG [U19G C43G] the value was 0.321; for ACCGGAUGUGCUUUCCGGGCUGAUGAGUCCUUGAGGACGAAACAG [U19G G31U], 0.451. For ACCGGAUGUGCUUUCCGGGCUGAUGAGUCCCUGAGGACGAAACAG [U19G G31C] the value was 0.431; for ACCGGAUGUGCUUUCCGGGCUGAUGAGUCCAUGAGGACGAAACAG [U19G G31A], 0.553; for ACCGGAUGUGCUUUCCGGGCUGAUGAGUCCGUGAGGACGAUACAG [U19G A41U], 0.342. As for ACCGGAUGUGCUUUCCGGGCUGAUGAGUCCGUGAGGACGACACAG [U19G A41C], the self-cleavage worked out at 0.327.

As to ACCGGAUGUGCUUUCCGGGCUGAUGAGUCCGUGAGGACGAGACAG [U19G A41G], the self-cleavage worked out at 0.345.

The record behind these values is the RNAGym collection of RNA variant scans (doi:10.7554/elife.80360).
